Here are results for 2 sequences from patent US9744222B2, “Peptide for vaccine” (Circassia Limited, priority 2007, dated 2017).

One data set has as its target DRB1*0701 (Homo sapiens, UniProt P01903+P01911, A100R/A102G/A103Q/D57E/D86V/E43K/F76Y/K127E/L162R/M171V/P40G/Q125H/Q99D/R33Q/R42Y/R54Q/S133A/S66F/T210M/V115G/Y107V/Y59L/Y89S). The data set is described as follows: Competitive MHC class II binding assay. The note with it: control peptide Influenza haemagglutinin 307-319.
In a further data set the target is DRB1*1101 (Homo sapiens, UniProt P01903+P01911, A100R/A169T/A87E/I96F/K41T/L162R/M171V/P40S/Q125H/Q178H/Q39Y/Q99D/R42S/S66Y/T262R/V115G/W38E). The data set is described as follows: Competitive MHC class II binding assay. The note with it: control peptide Influenza haemagglutinin 307-319.
The target of a further data set is DQA1*0102/DQB1*0602 (Homo sapiens, UniProt P01909+P01920, A157G/A45G/C70R/E118A/E183D/E77G/F83G/G63E/H151Q/H199R/H252R/H253Q/I129T/I235V/I88M/INS77G/K197Q/L117V/L119F/L178F/L71W/L74F/L85Q/L91A/L98M/N214S/P87R/Q116E/Q76K/R102G/R240Q/R75S/R78G/S102Y/S185I/S41F/S97I/T121G/T122I/T172A/T86R/V229M/V68A/V73E/Y34C/Y41F/Y58L). The data set is described as follows: Competitive MHC class II binding assay. The note with it: control peptide Human Insulin B 1-15. The protocol:
(§1) This is a characteristic of promiscuous HLA-DRB1* binders.
In addition, to identify lower affinity binders, the assay was also carried out under less stringent conditions. All the Der p binding peptides were seen to have a high ratio when tested against this allotype, showing they were low affinity binders compared to the control peptide. The DQA1*0102/DQB1*0602 binding assay uses a peptide from the B-chain of human insulin which is of lower affinity compared to those used in the DR assays. This dictates that the DQ assay is very sensitive and tends to produce very low ratio values for the strongest binders to this MHC Class II allotype. This sensitivity also accounts for the relatively higher number of DQ binding peptides within the panel screened.

Data set [1] is described as follows: Precipitation in aqueous solution of the binding assay. The class given is physicochemical. The conditions noted are these: lowest concentration at which an insoluble white precipitate is seen in the aqueous solution of the binding assay.
From the text: as §1

The next data set addresses DRB1*1501 (Homo sapiens, UniProt P01903+P01911). The data set is described as follows: Competitive MHC class II binding assay. The note with it: control peptide Human myelin basic protein 85-99.
The nature of data set [2]: Solubility pre-screen of peptides. The conditions noted are these: pre-screened for solubility in an aqueous, acidic milieu; YES/NO.
In data set [3] the test system is human MHC class II allotypes. The data set is described as follows: Competitive MHC class II binding assay, all allotypes. The note with it: competition assay, any allotype.
From the text: as §1
This is of significance as purities were seen to vary from 60-90%. This would have a considerable effect on the ability of a peptide to compete if it is relatively impure. […] Therefore, if purity is taken into consideration, they may in fact have an equivalent affinity to a peptide of a higher purity.

The next data set concerns the target DRB1*0301 (Homo sapiens, UniProt P01903+P01911, A100K/A102G/A103R/A169T/F55Y/I96L/K41T/L162R/M171V/P40S/Q125H/Q178H/Q39Y/R42S/S66N/T106N/T262R/W38E/Y61H). The data set is described as follows: Competitive MHC class II binding assay. The note with it: control peptide Myco. tuberculosis/leprae hsp 65 2-16.
From the text: as §1

As for CIIHRGKPFQLEA [HDM20], the “Relative binding, ratio of own IC50 to that of the control peptide, DRB1*0701” value with DRB1*0701 is recorded as 1.1. The “Relative binding, ratio of own IC50 to that of the control peptide, DRB1*1101” value with DRB1*1101 stood at 28. In addition, the “Relative binding, ratio of own IC50 to that of the control peptide, DQA1*0102 QB1*0602” value with DQA1*0102/DQB1*0602 was determined as 2.37. Further, in data set [1], the Precipitation in assay result is “None”. In the data set with DRB1*1501, the “Relative binding, ratio of own IC50 to that of the control peptide, DRB1*1501” value came to 242.11. In addition, the Solubility test entry in data set [2] is reported as “YES”.
In the case of DGLEVDVPGIDPNACH [HDM23A], the “Relative binding, ratio of own IC50 to that of the control peptide, DQA1*0102 QB1*0602” value at DQA1*0102/DQB1*0602 was 0.76. Besides, in data set [1], the Precipitation in assay result is on record as “None”. Further, in data set [3], the “MHC Class II binding (in words)” value is listed as “low affinity binding”. In addition, the “Relative binding, ratio of own IC50 to that of the control peptide, DRB1*0301” value at DRB1*0301 was 347.
